Data on 8 molecules can be found in paper PMC12865133, “Macrocyclic Molecular Glues for the 14‐3‐3/ChREBP Interaction: Affinity and Cooperativity in an Inverse Relationship” (Angewandte Chemie (International Ed. in English), 2025).

Where “and” joins values, the source holds several entries; their conditions need not be identical. Equal values may be shown once. Bridges are numbered along the chain shown (N, C = ends). Where no end group is shown, it is not given here. [ ]: non-standard residue; d: D form. Phe(4-NO2) = N[C@@H](Cc1ccc([N+](=O)[O-])cc1)C(=O)O; pS = N[C@@H](COP(=O)(O)O)C(=O)O; azidoPhe = azido phenylalanine; β3hS = N[C@@H](CO)CC(=O)O; βAla = NCCC(=O)O

First the molecules themselves.
T1: full-length human 14-3-3β protein with a N-terminal His6 tag (human, UniProt P31946 1-246)
T1 construct: 14-3-3 protein beta/alpha, human, full length; Treated as a dimer in the thermodynamic model (Pp = 14-3-3 dimer); also called Pp (14-3-3 dimer); source: E. coli BL21(DE3), pPROEX HTb, purified (Ni-NTA, dialysis)
T1 sequence (looked up): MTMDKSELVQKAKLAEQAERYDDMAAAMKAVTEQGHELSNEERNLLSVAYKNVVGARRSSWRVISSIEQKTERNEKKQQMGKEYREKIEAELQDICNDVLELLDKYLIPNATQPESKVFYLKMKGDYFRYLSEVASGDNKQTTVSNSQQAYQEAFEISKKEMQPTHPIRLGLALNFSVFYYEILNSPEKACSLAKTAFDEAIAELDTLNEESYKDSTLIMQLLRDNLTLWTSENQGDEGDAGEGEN

T2: full-length human 14-3-3γ protein with a N-terminal His6 tag (human, UniProt P61981 1-247)
T2 construct: 14-3-3 protein gamma, human, full length; TEV cleavage of the His6 tag is told only for the 14-3-3σ ΔC construct; source: E. coli BL21(DE3), pPROEX HTb, purified (Ni-NTA, dialysis)
T2 sequence (looked up): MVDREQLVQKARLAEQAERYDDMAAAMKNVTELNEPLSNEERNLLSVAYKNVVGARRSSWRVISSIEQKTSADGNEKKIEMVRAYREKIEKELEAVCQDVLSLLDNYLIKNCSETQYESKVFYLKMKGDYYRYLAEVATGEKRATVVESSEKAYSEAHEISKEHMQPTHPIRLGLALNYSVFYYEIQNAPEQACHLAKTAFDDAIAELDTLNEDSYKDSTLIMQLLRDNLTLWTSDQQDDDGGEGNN

T3: recombinant 14-3-3γ-Twinstrep protein (human, UniProt P61981 1-247)
T3 construct: 14-3-3 protein gamma; The expression of the Twinstrep construct is not described; also called Twinstrep-tagged 14-3-3γ; source: recombinant
T3 sequence (looked up): T2 sequence (looked up)

T4: 14-3-3γ (UniProt P61981 1-247)
T4 construct: 14-3-3 protein, gamma isoform; also called 14-3-3 protein
T4 sequence (looked up): T2 sequence (looked up)

T5: macrocycle F4 (not fully specified; fluorescein isothiocyanate (FITC) on the side chain of the first lysine; β-alanine after it; phosphoserine; triazole from azido phenylalanine (replacing Nph(+1)) cyclised to the …)
T5 chain: SFSXFKXK

T6: macrocycle F3 (not fully specified; fluorescein isothiocyanate (FITC) on the side chain of the first lysine; β-alanine after it; phosphoserine; triazole from azido phenylalanine (replacing Nph(+1)) cyclised to the …)
T6 chain: SFSXFKXK

B1: fluorescently labeled macrocycle F2 (peptide)
chain: SFSXFKXK
modifications: not fully specified; phosphoserine; Phe(+1) triazole cyclised to the backbone amide nitrogen of Lys(+5) through a linker x = 2 (from 3-butyn-1-ol); β-homoSer(+2); β-Ala(+3); Nph(+4); β-Ala and a lysine whose side chain carries fluorescein isothiocyanate (FITC) after Lys(+5)
B2: macrocycle 4 (peptide)
chain: SFSXFK
modifications: not fully specified; phosphoserine (position 0); phenylalanine(+1) with a triazole (from azido phenylalanine, replacing Nph(+1)) cyclised to the backbone amide nitrogen of Lys(+5) through an alkyl linker x = 4 (from 5-hexyn-1-ol); β-homoSer(+2); β-Ala(+3); 4-nitrophenylalanine Nph(+4); Ac- (Ac-macrocycles)
B3: FITC-labeled pepD (peptide)
chain: [pS][Phe(4-NO2)][β3hS][βAla][Phe(4-NO2)]K
modifications: also: FITC label, site not given here
B4: macrocycle F1 (peptide)
chain: SFSXFKXK
modifications: not fully specified; fluorescein isothiocyanate (FITC) on the side chain of the first lysine; β-alanine after it; phosphoserine; triazole from azido phenylalanine (replacing Nph(+1)) cyclised to the backbone amide nitrogen between Lys(+5) and Nph(+4), linker x = 1; β-homoSer(+2); β-Ala(+3); 4-nitrophenylalanine Nph(+4)
B5: macrocycle 3 (peptide)
chain: Ac-[pS][azidoPhe][β3hS][βAla][Phe(4-NO2)]K
modifications: bridge 2-6; not fully specified (bridges); also: triazole of Phe(+1) (from azido phenylalanine) cyclised to backbone amide nitrogen of Lys(+5)
B6: fluorescently labeled macrocycle F3 (peptide)
chain: SFSXFKXK
modifications: not fully specified; phosphoserine; Phe(+1) triazole cyclised to the backbone amide nitrogen of Lys(+5) through a linker x = 3 (from 4-pentyn-1-ol); β-homoSer(+2); β-Ala(+3); Nph(+4); β-Ala and a lysine whose side chain carries fluorescein isothiocyanate (FITC) after Lys(+5)
B7: 14-3-3β (natural protein, UniProt P31946 1-246, looked up)
chain: T1 sequence (looked up)
notes: 14-3-3 protein, beta isoform; also called 14-3-3 protein
B8: fluorescently labeled macrocycle F1 (peptide)
chain: SFSXFKXK
modifications: not fully specified; phosphoserine; Phe(+1) triazole cyclised to the backbone amide nitrogen of Lys(+5) through a linker x = 1 (from propargyl alcohol); β-homoSer(+2); β-Ala(+3); Nph(+4); β-Ala and a lysine whose side chain carries fluorescein isothiocyanate (FITC) after Lys(+5)

Conditions in all cases: both partners purified
The target in assay [1] is T1, full-length human 14-3-3β protein with …. In words: fluorescence polarisation; 2D fluorescence anisotropy titration, replicate 1: 14-3-3β titrated (from 250 µM) to FITC-labeled macrocycle or pepD with varying ChREBP peptide starting at 20 μM; KD I (binary affinity of the macrocycle for a site of the 14-3-3 dimer) fitted by the thermodynamic cooperativity model with KD II fixed at 1.5 µM; 10 mM HEPES pH 7.4, 150 mM NaCl, 0.1% Tween20, 0.1% BSA; room temperature. In general terms: Fluorescence polarisation rises when a labelled molecule tumbles more slowly, as on binding a larger partner.

Assay [2] shares this target. In words: fluorescence polarisation; 2D fluorescence anisotropy titration, replicate 2: 14-3-3β titrated (from 250 µM) to FITC-labeled macrocycle or pepD with varying ChREBP peptide starting at 10 μM; KD I (binary affinity of the macrocycle for a site of the 14-3-3 dimer) fitted by the thermodynamic cooperativity model with KD II fixed at 1.5 µM; 10 mM HEPES pH 7.4, 150 mM NaCl, 0.1% Tween20, 0.1% BSA; room temperature.

The target of assay [3] is T2, full-length human 14-3-3γ protein with …. In words: ITC; 200 μM macrocycle or pepD titrated to 20 μM 14-3-3γ; 25 mM HEPES pH 8.0, 100 mM NaCl, 10 mM MgCl2, 500 µM TCEP; 25 °C; fitted with SEDPHAT; mean ± SD, n=3. (In general: ITC needs no label: the signal is the heat of the interaction.)
Assay [4] addresses T3, recombinant 14-3-3γ-Twinstrep protein. Nature of the assay: SPR; kinetic fit (1:1 model, global); Twinstrep-tagged 14-3-3γ captured on a Strep-Tactin XT chip (about 1000 RU), 2-fold dilutions of Ac-macrocycle or pepD injected; multi-cycle; 25 °C; 10 mM HEPES pH 7.4, 200 mM NaCl, 50 μM EDTA, 0.005% P20; two replicates and their average.
Assay [5] has the same target. Nature of the assay: SPR; affinity fit (steady-state response against concentration, 1:1 model); Twinstrep-tagged 14-3-3γ captured on a Strep-Tactin XT chip, 2-fold dilutions of Ac-macrocycle or pepD injected; 25 °C; 10 mM HEPES pH 7.4, 200 mM NaCl, 50 μM EDTA, 0.005% P20; two replicates and their average. For orientation: Surface plasmon resonance follows binding to a sensor surface in real time, without labels.

Another assay has as its target T4, 14-3-3γ. In words: fluorescence polarisation; fluorescence anisotropy; 14-3-3γ titrated to FITC-labeled macrocycles F1-F4 and pepD (10 nM); mean ± SD, n = 3.
The assay “14-3-3β” concerns the target B7. In words: fluorescence polarisation; two-dimensional fluorescence anisotropy; 14-3-3β titrated to FITC-labeled F1, F2, F3, F4 or pepD (10 nM) with varying concentrations of ChREBP peptide; fitted to a thermodynamic cooperativity model with KD II fixed at 1.5 µM; n = 2.
The target in a further assay is T5, macrocycle F4. The description is as above.
The target of the next assay is FITC-labeled pepD (FITC label (position not given); phosphoserine (pSer); 4-nitrophenylalanine Nph(+1) and Nph(+4), counting from pSer). The description is as above.
For the assay “macrocycle F1”, the target named is B4. The assay is described as above.
The next assay concerns the target T6, macrocycle F3. Described as above.

B1: the Kd in assay [1] turned out to be 12600 nM; in assay [2], 11900 nM.

As to B2, the dissociation constant Kd is 1050 nM in [3]; 1140 nM and 1030 nM and 1100 nM in assay [4]; 1180 nM and 1130 nM and 1200 nM in [5].

For the molecule B3, the values for the Kd in assay [1] and in assay [2] were 8900 nM and 7500 nM, respectively.

As to B4, the Kd came to 57000 nM with 14-3-3γ and 72000 ± 1400 nM with 14-3-3β.

B5: the Kd in assay [3] is 167 nM; in [4], 220 nM and 233 nM and 230 nM; in [5], 228 nM and 253 nM and 240 nM.

On to B6, for which the values for the Kd in [1] and in assay [2] were 630 nM and 380 nM, respectively.

For B7, the “cooperativity factor α with ChREBP peptide” value with macrocycle F4 came to 42 ± 1; with FITC-labeled pepD, 38 ± 2; with macrocycle F1, 339 ± 35; with macrocycle F3, 12 ± 1.

On to B8, for which the Kd was 71000 nM in assay [1] and 73000 nM in [2].

What is called Kd is the constant that tells how readily two partners part at equilibrium.
